Data on 1 substance can be found in paper PMC3360035.

For this test, the target named is Wild-type human γD-crystallin (human) (UniProt P07320).
Wild-type human γD-crystallin (human), sequence (P07320 whole entry): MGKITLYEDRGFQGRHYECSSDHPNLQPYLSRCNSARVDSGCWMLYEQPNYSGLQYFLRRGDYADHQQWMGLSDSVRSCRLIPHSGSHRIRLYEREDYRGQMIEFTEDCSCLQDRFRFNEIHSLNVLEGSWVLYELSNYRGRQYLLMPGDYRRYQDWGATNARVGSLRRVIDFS

For the substance “αB-crystallin, wild type (from UniProt P02511 1-175) (natural protein)”, the suppression of aggregation on dilution out of 5 M GdnHCl (from maximum A350), αB in 5-fold molar excess stood at 72%.
